# Measurements taken from article PMC3420232.
# B1: Flag-tagged recombinant human TRAIL (sTRAIL), unlabeled, P50591 95-281 (ligand)
# chain: TSEETISTVQEKQQNISPLVRERGPQRVAAHITGTRGRSNTLSSPNSKNEKALGRKINSWESSRSGHSFLSNLHLRNGELVIHEKGFYYIYSQTYFRFQEEIKENTKNDKQMVQYIYKYTSYPDPILLMKSARNSCWSKDAEYGLYSIYQGGIFELKENDRIFVSVTNEHLIDMDHEASFFGAFLVG
# Molecular target: wild-type human TRAILR1 (human), O00220
# Experiment: radioligand binding; competition on cells: 4x10^5 murine fibroblasts expressing the (chimeric) TRAIL receptor in PFA (PBS, 2% FCS, 0.002% sodium azide), 83 ng/ml 125I-TRAIL with or without unlabeled recombinant human TRAIL (83-5300 ng/ml), 4 hours on ice; cells spun through phthalate oil; 68 kDa used for TRAIL
# Settings: remark: other sources report otherwise
binder,measurement,value
B1,IC50,17.7 nM
